The values that follow come from patent publication US20190008947A1.

Several values for one entry are separate records, joined by “and”; a condition that tells them apart may be missing. Equal values may be shown once. Read-outs that look alike come from different tables or passages of the source.

For assay [1], the target named is T1, HLA-A*02:01 (human), P04439.
T1 chain: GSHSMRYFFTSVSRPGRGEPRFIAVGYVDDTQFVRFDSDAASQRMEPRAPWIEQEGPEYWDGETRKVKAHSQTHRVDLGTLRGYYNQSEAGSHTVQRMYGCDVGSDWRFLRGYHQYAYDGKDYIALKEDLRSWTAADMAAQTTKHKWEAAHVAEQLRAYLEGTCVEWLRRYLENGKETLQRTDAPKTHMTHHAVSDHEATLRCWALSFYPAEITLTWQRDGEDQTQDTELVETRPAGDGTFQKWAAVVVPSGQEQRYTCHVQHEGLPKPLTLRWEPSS
The following applies: chains peptide; modification not given.

Assay [2] has as its target HLA-A*02:01 (human), P04439. Put plainly: ProImmune REVEAL MHC-peptide binding assay, A*02:01, score against positive control.
The next assay addresses T2, H-2Kb (mouse), P01901.
T2 chain: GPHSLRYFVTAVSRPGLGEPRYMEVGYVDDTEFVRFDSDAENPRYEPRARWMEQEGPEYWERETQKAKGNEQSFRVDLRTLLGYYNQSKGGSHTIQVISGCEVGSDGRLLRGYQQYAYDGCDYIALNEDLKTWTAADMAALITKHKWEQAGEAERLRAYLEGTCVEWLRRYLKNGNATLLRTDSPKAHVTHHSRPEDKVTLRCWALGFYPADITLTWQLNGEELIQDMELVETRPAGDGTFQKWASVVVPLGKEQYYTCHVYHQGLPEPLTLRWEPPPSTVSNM
Put plainly: ProImmune REVEAL MHC-peptide binding assay, H-2Kb.

Assay [3] addresses A*11:01, P04439. The conditions noted are these: modification not given.
The target of assay [4] is T3, A*03:01, P04439.
T3 chain: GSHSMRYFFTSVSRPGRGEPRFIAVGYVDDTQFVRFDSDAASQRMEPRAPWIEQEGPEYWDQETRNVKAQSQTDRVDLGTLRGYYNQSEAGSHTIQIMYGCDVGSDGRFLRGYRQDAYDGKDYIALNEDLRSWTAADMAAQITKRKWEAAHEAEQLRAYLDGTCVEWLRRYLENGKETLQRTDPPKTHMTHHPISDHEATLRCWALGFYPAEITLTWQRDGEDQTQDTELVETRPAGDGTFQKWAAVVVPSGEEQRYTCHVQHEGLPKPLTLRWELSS
The following applies: modification not given.

The next assay deals with B*07:02, P01889. Put plainly: ProImmune REVEAL MHC-peptide binding assay, B*07:02.
In assay [5] the target is A*11:01, P04439. The conditions noted are these: modification not given. This is another data set of the same source.
Assay [6] concerns the target A*24:02, P16209. The conditions noted are these: modification not given.
Another assay concerns the target B*27:05, P13750. Put plainly: ProImmune REVEAL MHC-peptide binding assay, B*27:05.
Assay [7] addresses HLA-A*32:01. Put plainly: HLA binding; serotype 1. The following applies: chains peptide; modification not given.
Assay [8] deals with HLA-B*40:01. Put plainly: HLA binding; serotype 1. The conditions noted are these: chains peptide; modification not given.
The target of assay [9] is A*11:01, P04439. The following applies: modification not given. The source holds these as a separate data set.
Assay [10] addresses T3, A*03:01, P04439. The conditions noted are these: modification not given.
In assay [11] the target is A*11:01, P04439. The following applies: modification not given. The source holds these as a separate data set.
The target in assay [12] is A*03:01, P04439. The following applies: modification not given. This is another data set of the same source.
For assay [13], the target named is HLA-A*32:01. Put plainly: HLA binding; serotype 4. The conditions noted are these: chains peptide; modification not given.
In assay [14] the target is HLA-B*40:01. Put plainly: HLA binding; serotype 4. The following applies: chains peptide; modification not given.
Assay [15] deals with A*11:01, P04439. The conditions noted are these: modification not given. The source holds these as a separate data set.
For assay [16], the target named is A*24:02, P16209. The following applies: modification not given. The source holds these as a separate data set.
The target in assay [17] is A*24:02, P16209. The conditions noted are these: modification not given. This is another data set of the same source.
The target in assay [18] is A*11:01, P04439. The conditions noted are these: modification not given. This is another data set of the same source.
Assay [19] has as its target HLA-A*32:01. Put plainly: HLA binding; serotype 3. The conditions noted are these: chains peptide; modification not given.
For another assay, the target named is HLA-B*15:01. Put plainly: HLA binding; serotype 3. The following applies: chains peptide; modification not given.
The target of assay [20] is HLA-B*40:01. Put plainly: HLA binding; serotype 3. The conditions noted are these: chains peptide; modification not given.
The target in assay [21] is A*24:02, P16209. The following applies: modification not given. This is another data set of the same source.
The target of assay [22] is A*11:01, P04439. The following applies: modification not given. The source holds these as a separate data set.
Assay [23] concerns the target T1, HLA-A*02:01 (human), P04439. The conditions noted are these: chains peptide; modification not given.

The IC50 is the concentration at which inhibition is half-maximal. High values mean weaker potency in that assay, low ones greater potency in that assay. Take RQWFFDLPL (modifications not checked) [… (SEQ ID NO: 343)]: in assay [1], the IC50 was 39 nM and 12 nM. The molecule further registered an REVEAL Score in assay [2] of 80.5.
In the case of CHATFTMRL (modifications not checked), the REVEAL ® score at 0 h with H-2Kb (mouse), P01901 is 60.3.
Consider ALKINWYRK, for which the IC50 came out at 376 nM in the assay with A*11:01, P04439 [3] and 193 nM with A*03:01, P04439 [4].
Molecule PLSRNSTHE (modifications not checked) registered an REVEAL ® score at 0 h with B*07:02, P01889 of 65.
The molecule VTFKNAHAK returned an IC50 with A*11:01, P04439 [5] of 17 nM.
In the assay with A*24:02, P16209 [6], SYSMCTGKF gave an IC50 of 115 nM.
The molecule LMYFHRRDL (modifications not checked) displayed an REVEAL ® score at 0 h with H-2Kb (mouse), P01901 of 54.9.
As for LMCHATFTM (modifications not checked), the REVEAL ® score at 0 h with H-2Kb (mouse), P01901 was 59; with B*27:05, P13750, 98.2.
The molecule ATFTMRLLS (modifications not checked) registered an REVEAL ® score at 0 h with H-2Kb (mouse), P01901 of 55.6.
For the molecule KQWFLDLPL […, serotype 1, listing 1 of 2 here], the IC50 came to 8 nM with HLA-A*32:01 [7] and 398 nM with HLA-B*40:01 [8].
As to QLKLNWFKK, the IC50 with A*11:01, P04439 [9] is 778 nM; in the assay with A*03:01, P04439 [10], 151 nM.
On to FKLTYQNKV (modifications not checked), for which, in the assay with B*27:05, P13750, the REVEAL ® score at 0 h came out at 53.7.
In the case of LSRNSTHEM (modifications not checked), the REVEAL ® score at 0 h in the assay with H-2Kb (mouse), P01901 came out at 51.1; in the assay with B*07:02, P01889, 124.
In the assay with H-2Kb (mouse), P01901, HATFTMRLL (modifications not checked) had an REVEAL ® score at 0 h of 69.5.
With ALTLHWFRK, the IC50 in the assay with A*11:01, P04439 [11] is 47 nM; in the assay with A*03:01, P04439 [12], 34 nM.
QQRVFKEKV (modifications not checked): the REVEAL ® score at 0 h in the assay with H-2Kb (mouse), P01901 came out at 63.4.
With KQWFLDLPL […, serotype 4, listing 2 of 2 here], the IC50 stood at 8 nM with HLA-A*32:01 [13] and 398 nM in the assay with HLA-B*40:01 [14].
Molecule VTFKVPHAK registered an IC50 in the assay with A*11:01, P04439 [15] of 14 nM.
LAPTRVVAA (modifications not checked) yielded an REVEAL ® score at 0 h with H-2Kb (mouse), P01901 of 102.
In the case of SYVMCTGSF, in the assay with A*24:02, P16209 [16], the IC50 was 104 nM. This counts as sub-micromolar.
With YGLNTFTNM (modifications not checked), the REVEAL ® score at 0 h in the assay with H-2Kb (mouse), P01901 turned out to be 75.4.
In turn, SYAMCLNTF yielded an IC50 with A*24:02, P16209 [17] of 540 nM.
With VTFKNPHAK, the IC50 with A*11:01, P04439 [18] was 17 nM. That is a double-digit nanomolar value.
FKPGTSGSP (modifications not checked) came in with an REVEAL ® score at 0 h in the assay with H-2Kb (mouse), P01901 of 45.7.
ARGYISTRV (modifications not checked) had an REVEAL ® score at 0 h in the assay with B*27:05, P13750 of 125.
As to RQWFFDLPL, the IC50 with HLA-A*32:01 [19] was 7 nM; in the assay with HLA-B*15:01 it was 80 nM; with HLA-B*40:01 [20], 51 nM.
For SYTMCSGKF, in the assay with A*24:02, P16209 [21], the IC50 came out at 222 nM.
As for VTFKTAHAK, the IC50 with A*11:01, P04439 [22] is 16 nM.
As for KQWFLDLPL (modifications not checked) [… (SEQ ID NO: 341)], in [23], the IC50 is 11 nM. In assay [2], the REVEAL Score came out at 86.
As for SRNSTHEMY (modifications not checked), the REVEAL ® score at 0 h with B*07:02, P01889 worked out at 52.
RRGDLPVWL (modifications not checked) showed an REVEAL ® score at 0 h with B*27:05, P13750 of 145.
